Data from article PMC9544093.

How the values were obtained:
[1] = molecular target: Bovine γ-globulin (Sigma-Aldrich G5009), a polyvalent antibody mixture of ~80 % IgG, ~10 % IgM and <10 % IgA (bovine); assay: fluorescence polarisation; steady-state fluorescence anisotropy in a high-pressure cell; 0.43 uM dansyl-labelled γ-globulin titrated with 0-250 uM unlabelled γ-globulin; neat buffer; 20 °C; p = 500 bar; fitted to a 1:1 (monomer to dimer) model
[2] = molecular target: Bovine γ-globulin (Sigma-Aldrich G5009), a polyvalent antibody mixture of ~80 % IgG, ~10 % IgM and <10 % IgA (bovine); assay: fluorescence polarisation; steady-state fluorescence anisotropy; 0.43 uM dansyl-labelled γ-globulin titrated with 0-250 uM unlabelled γ-globulin; 0.5 M TMAO; 20 °C; pressure not named for this value (ambient implied); fitted to a 1:1 (monomer to dimer) model
[3] = molecular target: Bovine γ-globulin (Sigma-Aldrich G5009), a polyvalent antibody mixture of ~80 % IgG, ~10 % IgM and <10 % IgA (bovine); assay: fluorescence polarisation; steady-state fluorescence anisotropy in a high-pressure cell; 0.43 uM dansyl-labelled γ-globulin titrated with 0-250 uM unlabelled γ-globulin; 0.5 M TMAO; 20 °C; p = 500 bar; fitted to a 1:1 (monomer to dimer) model
[4] = molecular target: Bovine γ-globulin (Sigma-Aldrich G5009), a polyvalent antibody mixture of ~80 % IgG, ~10 % IgM and <10 % IgA (bovine); assay: fluorescence polarisation; steady-state fluorescence anisotropy; 0.43 uM dansyl-labelled γ-globulin titrated with 0-250 uM unlabelled γ-globulin; neat buffer; 20 °C; pressure not named for this value (ambient implied); fitted to a 1:1 (monomer to dimer) model

In the case of “Bovine γ-globulin (Sigma-Aldrich G5009), a polyvalent antibody mixture of ~80 % IgG, ~10 % IgM and <10 % IgA”, the Ka [1] is reported as 1530 M⁻¹, the Ka [2] is reported as 592 M⁻¹ and the Ka [3] is reported as 997 M⁻¹. It also gave a Ka [4] of 882 M⁻¹.
